Test results: patent US7250505 (FRED HUTCHINSON CANCER RESEARCH CENTER, dated 2007)
Non-standard residues stand in square brackets, D forms with d. No end group written: not given here. pY = N[C@@H](Cc1ccc(OP(=O)(O)O)cc1)C(=O)O

Key:
activated Src (Src527F) = target: T1, activated Src (Src527F) (UniProt P00523 1-533); test: co-expression with Src527F in 293T cells, immunoprecipitation and immunoblot
T1 construct: the old residue (Tyr) is from general knowledge

[1] = target: T2, APP protein (endogenous, full-length) (UniProt P12023 18-770, limits assumed); test: GST pull-down from P19 cell extracts, Western blot
T2 construct: P19 is a mouse line by general knowledge; also called endogenous, full-length APP; amyloid precursor protein

[2] = target: T3, GST-mDab1 PTB domain fusion protein (mouse, UniProt O75553 29-197 (human entry)); test: cellulose peptide array, radiolabeled GST-PTB
T3 construct: also called GST-PTB; not shown: glutathione S-transferase encoded by the pGEX-2T vector
T3 sequence: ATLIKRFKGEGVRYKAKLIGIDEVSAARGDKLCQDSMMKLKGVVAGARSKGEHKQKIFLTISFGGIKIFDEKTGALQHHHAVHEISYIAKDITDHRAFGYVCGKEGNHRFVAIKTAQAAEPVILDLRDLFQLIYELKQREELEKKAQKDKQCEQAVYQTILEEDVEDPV

[3] = target: LexA-Src(295R) fusion protein (UniProt P0A7C2 1-202; P00523 1-533); test: yeast two-hybrid, beta-galactosidase filter assay

B1: mDab198/200F (mutant mDab555 with Phe in place of Tyr 198 and Tyr 200) (other)
chain: MSTETELQVAVKTSAKKDSRKKGQDRSEATLIKRFKGEGVRYKAKLIGIDEVSAARGDKLCQDSMMKLKGVVAGARSKGEHKQKIFLTISFGGIKIFDEKTGALQHHHAVHEISYIAKDITDHRAFGYVCGKEGNHRFVAIKTAQAAEPVILDLRDLFQLIYELKQREELEKKAQKDKQCEQAVYQTILEEDVEDPVFQFIVFEAGHEPIRDPETEENIYQVPTSQKKEGVYDVPKSQPVSAVTQLELFGDMSTPPDITSPPTPATPGDAFLPSSSQTLPGSADVFGSMSFGTAAVPSGYVAMGAVLPSFWGQQPLVQQQIAMGAQPPVAQVIPGAQPIAWGQPGLFPATQQAWPTVAGQFPPAAFMPTQTVMPLAAAMFQGPLTPLATVPGTNDSARSSPQSDKPRQKMGKESFKDFQMVQPPPVPSRKPDQPSLTCTSEAFSSYFNKVGVAQDTDDCDDFDISQLNLTPVTSTTPSTNSPPTPAPRQSSPSKSSASHVSDPTADDIFEEGFESPSKSEEQEAPDGSQASSTSDPFGEPSGEPSGDNISPQDGS
notes: Co-expressed with Src527F in 293T cells
**Q.** With B1 as the binder, how does the “fold reduction of the in vivo association against mDab555” value (activated Src (Src527F)) read?
**A.** ~2 fold

B2: GST-mDab1 56E PTB domain fusion protein (other)
chain: ATLIKRFKGEGVRYKAKLIGIDEVSAAEGDKLCQDSMMKLKGVVAGARSKGEHKQKIFLTISFGGIKIFDEKTGALQHHHAVHEISYIAKDITDHRAFGYVCGKEGNHRFVAIKTAQAAEPVILDLRDLFQLIYELKQREELEKKAQKDKQCEQAVYQTILEEDVEDPV
notes: also called mDab56E-GST; mutant mDab1 PTB; not shown: GST of pGEX-2T and its linker
**Q.** Does B2 bind [1]?
**A.** no binding

B3: TrkA peptide with the motif Ile Ile Glu Asn Pro Gln Tyr, phosphorylated (peptide)
peptide: IIENPQ[pY]
modifications: also: on cellulose array
notes: NPXpY peptide on a cellulose array
**Q.** Does B3 bind [2]?
**A.** no binding

B4: TrkA peptide with the motif Ile Ile Glu Asn Pro Gln Tyr, not phosphorylated (peptide)
peptide: IIENPQY
notes: 15 to 17 residue peptide on a cellulose array; only the motif is printed; also called NGF receptor (TrkA) peptide
**Q.** Does B4 bind [2]?
**A.** no binding

B5: mDab1 clone B3 fused to the VP16 transactivation domain (other)
chain: HHHAVHEISYIAKDITDHRAFGYVCGKEGNHRFVAIKTAQAAEPVILDLRDLFQLIYELKQREELEKKAQKDKQCEQAVYQTILEEDVEDPVYQYIVFEAGHEPIRDPETEENIYQVPTSQKKEGVYDVPKSQPVSAVTQLELFGDMSTPPDITSPPTPATPGDAFLPS
**Q.** Does B5 bind [3]?
**A.** no binding
